The source of these data is patent US20230183379A1 (published 2023).

This experiment concerns the target transferrin receptor 1 (TfR1), human (human, UniProt P02786 1-760). The experiment can be described thus: FACS binding, Raji cells, 4 °C.

Sequence of transferrin receptor 1 (TfR1), human (P02786 whole entry): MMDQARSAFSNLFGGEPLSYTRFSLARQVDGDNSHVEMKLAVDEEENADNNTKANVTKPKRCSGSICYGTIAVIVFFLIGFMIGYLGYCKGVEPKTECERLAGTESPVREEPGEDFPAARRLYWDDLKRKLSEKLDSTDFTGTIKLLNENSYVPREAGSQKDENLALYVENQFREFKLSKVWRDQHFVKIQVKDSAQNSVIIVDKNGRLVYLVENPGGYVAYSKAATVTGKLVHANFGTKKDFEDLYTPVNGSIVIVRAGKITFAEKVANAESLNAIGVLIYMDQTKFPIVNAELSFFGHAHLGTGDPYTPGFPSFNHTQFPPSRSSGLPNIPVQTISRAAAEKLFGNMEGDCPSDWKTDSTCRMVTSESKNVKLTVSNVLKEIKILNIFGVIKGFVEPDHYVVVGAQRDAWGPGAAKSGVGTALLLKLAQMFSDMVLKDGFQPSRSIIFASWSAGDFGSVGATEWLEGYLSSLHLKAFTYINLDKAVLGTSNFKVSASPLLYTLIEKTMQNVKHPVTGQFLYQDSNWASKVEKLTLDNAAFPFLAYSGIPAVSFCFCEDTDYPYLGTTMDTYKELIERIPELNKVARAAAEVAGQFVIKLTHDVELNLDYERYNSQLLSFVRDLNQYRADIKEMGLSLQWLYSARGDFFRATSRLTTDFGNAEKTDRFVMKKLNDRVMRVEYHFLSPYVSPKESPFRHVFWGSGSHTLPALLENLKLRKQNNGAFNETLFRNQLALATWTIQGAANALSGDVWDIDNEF

B1: F12-IgG1 (IgG1 anti-TfR1 F12 antibody) (antibody, V domains shown)
VH: QVQLQESGGGLVQPGGSLRLSCAASGFSFNTYTMHWVRQAPGKGLEWVADIAYDGSTKYYADSVKGRFTISRDNAKNSLYLQMNSLRAEDTAVYYCARDAVAGEGYFDLWGRGTLVTVSS
VL: QSALTQDPAVSVALGQTVRITCQGDSLRSYYASWYQQLPGTAPKLLIYRNNQRPSGVPDRFSGSKSGTSASLAISGLRSEDEADYYCAAWDDSLSAWVFGGGTKLTVLG
A word on the EC50: it is the concentration that produces a half-maximal response. A lower EC50 goes with greater potency. B1 registered an EC50 of 1.13 nM.
